Substrate in data set [1]: Cc1cc2nc3c(=O)[nH]c(=O)nc-3n(C[C@H](O)[C@H](O)[C@H](O)COP(=O)(O)OP(=O)(O)OC[C@H]3O[C@@H](n4cnc5c(N)ncnc54)[C@H](O)[C@@H]3O)c2cc1C
Briefly: HPLC fluorescence of FMN product, Michaelis-Menten fit. The data set is classed as biochemical, Saccharomyces cerevisiae. The settings on record: 4 mM CoCl2, 200 mM KCl, 100 mM Hepes-KOH pH 7.0, 30 °C. The text has this:
HPLC fluorescence of FMN product, Michaelis-Menten fit on Fpy1p

Data set [2] deals with the molecule itself. In words: SEC; gel filtration on Superdex 200 10/300 in 50 mM potassium phosphate pH 7.5, 150 mM KCl, 100 mM L-arginine HCl, 0.1% Tween-20, 1 mM THP; calibrated with standards of 12.4-200 kDa; Fpy1p detected in fractions by enzymatic assay. A general note: SEC sorts molecules by how far they enter the pores of the column.

The values that follow come from article PMC6002036, “Characterization of a non-nudix pyrophosphatase points to interplay between flavin and NAD(H) homeostasis in Saccharomyces cerevisiae” (PLoS ONE, 2018).

B1: Fpy1p (protein encoded by YMR178w), recombinant with V5 epitope and 6xHis tag (enzyme, S. cerevisiae, UniProt Q03219 1-274, looked up)
chain: MVKVTAACIIIGDEVLNGKVVDTNSTFFAKYCFDHGIQLKEIATIGDDETQIVDTVRRLVKNYDFIISTGGIGPTHDDITYECMAKSFNLPCELDEECKERMRHKSDPEARLDADALKAHYQMATMPKGTNVKNYYVCDDLWVPICSISHKMYILPGIPQLFARMLKAFTPTLKKIYNLDKDPREYVRYFVRTHLTESQISKELKLIQDESTKVSEAIKIGSYPHFGMGFNTVSILGEKKDDSYLKSIVNRVVNNLEGEVISSELENKFSNQES
notes: Fpy1p, the pyrophosphatase encoded by ORF YMR178w of S. cerevisiae; whole open reading frame without the stop codon, amplified from the start codon; also called YMR178wp; source: S. cerevisiae strain Y258 (pYES-DEST52, galactose induction), purified (two-step IMAC: Cu2+ then Ni2+)
For the protein B1, in data set [1], the Michaelis-Menten constant (Km) (as a rule, the concentration of substrate that gives half-maximal velocity) came out at 16.1 ± 2.1 µM; the kcat – broadly, the maximal rate divided by the concentration of active sites – came to 0.38 s⁻¹; the kcat/Km (usually the turnover number divided by the Michaelis constant) was 23000 M⁻¹ s⁻¹. In data set [2], the stoichiometry N (as a rule, the number of molecules, sites or subunits per partner or assembly) was 3.
